In patent US20210261643A1, “INHIBITORS OF P-TEFB MEDIATED TRANSCRIPTION” (The Regents of the University of California, priority 2018, published 2021):

Legend:
Assay type in all cases: cell-based
[1] = tested on: Tat-dependent gene expression from the HIV promoter; assay: Luciferase reporter assay, pLTR-Luc co-transfected with pTat and pHT in 293T cells; conditions: 293T cells, pHT:pTat ratio 2:1
Description: FIGS. 2A, 2B, and 2C. A HEXIM1-Tat fusion peptide inhibits gene expression from the HIV promoter. FIG. 2A. Structure of the HEXIM1-Tat fusion peptides used in the study. The functional domains used from HEXIM1 and Tat include a HEXIM1 Arginine Rich Motif (ARM, black box, residues 150-162) that binds RNA, a HEXIM1 inhibitory domain (ID, light grey box, residues 200-211) that inhibits CDK9 through a PYNT motif, and Tat transactivation domain (AD, dark grey box, residues 1-48) that binds to P-TEFb. The conceptual schemes are not drawn to scale. FIG. 2B. Transient expression of HT1 inhibits Tat-induced LTR-driven Luc expression. Upper panel: a schema depicts the reporter assay. A luciferase reporter gene (Luc) is under the control of the HIV promoter (P-HIV) and can be activated by ectopically expressed Tat. The Luc assay was used to titrate the inhibitory effect of HT1-3 on P-HIV transactivation by Tat. Middle panel: increasing amounts of m:HT1, m:HT2 or m:HT3 expressing plasmid (pHT) were co-transfected in 293T cells with a plasmid (pTat) expressing f:Tat and another (pLTR-Luc) expressing Luc under the control of the HIV promoter. Luc activity was plotted as % activity relative to control (empty vector used instead of pHT), depending on the transfected pHT:pTat ratio. Error bars in the graph represent standard deviation from triplicate experiments. FIG. 2C. Transient expression of HT1 inhibits Luc expression from HIV-1 NL43ΔenvLuc. Top schema depicts the reporter assay. A luciferase reporter gene (Luc) is inserted in a replication-defective HIV-1 molecular clone (pNL43ΔenvLuc) in which Luc and Tat are under the control of the HIV promoter (P-HIV). A Luc assay was used to titrate the inhibitory effect of HT1-3 on P-HIV transactivation by Tat. Bottom: increasing amounts of pHT1 were co-transfected in 293T cells with pNL43ΔenvLuc. Luc activity was plotted as % activity relative to control (empty vector used instead of pHT), depending on the transfected amounts of pHT1. Error bars in the graph represent standard deviation from triplicate experiments.
Luciferase (Luc) reporter assays were performed to titrate the potency of each chimera to inhibit Tat-dependent gene expression from the HIV promoter. Effector plasmids included pHT1-3 and pTat, which respectively expressed a Myc-epitope tag chimera (m:HT1-3) and a Flag-epitope tagged Tat (f:Tat). pHT1, pHT2 or pHT3 was transiently co-transfected in 293T cells with pTat and a Luc reporter gene under the control of the HIV promoter (P-HIV, expressed from the plasmid pLTR-Luc). […] Finally, HT1 lead to a 4-fold decrease in Luc expression at a 2:1 ratio. […] Similar results were obtained when co-transfecting pHT1-3 and pTat in NIH1 cells, which stably carry an LTR-Luc reporter gene. Thus, we selected HT1 for further investigation.

[2] = tested on: HEXIM1, a bona fide target of P-TEFb; assay: HEXIM1 mRNA and protein expression in 293T cells; conditions: increasing amounts of m:HT1
Description: Since P-TEFb is a major transcription factor and regulates the expression of many cellular genes, we next assessed whether HT1 could impair host cell gene expression through inactivation of the kinase activity of CDK9. We first investigated how HT1 impacted the mRNA and protein expression levels of HEXIM1, a bona fide target of P-TEFb.

[3] = tested on: HIV reactivation in J-Lat 9.2 cells; assay: HIV reactivation in J-Lat 9.2 latent infection model, FACS of GFP positive cells; conditions: PMA 100 nM
Description: FIGS. 4A and 4B. Stable expression of HT1 inhibits HIV reactivation. FIG. 4A: Stable expression of HT1 inhibits HIV reactivation from 2D10 cells. 3f:HT1 was stably expressed in 2D10 cells (D-HT cells). […] Error bars represent standard deviation from triplicate FACS analysis. FIG. 4B: Stable expression of HT1 inhibits HIV reactivation from J-Lat 9.2 cells. 3f:HT1 was stably expressed in J-Lat 9.2 cells (L-HT cells). […] Error bars represent standard deviation from triplicate FACS analysis.
To test the effect of HT1 on HIV-1 in T-lymphocyte derived cells, 3f:HT1 was stably expressed in HIV latent infection models 2D10 and J-Lat 9.2 cells (D-HT and L-HT cells respectively), which carry replication-defective, GFP-flagged HIV proviruses. In both 2D10 and J-Lat 9.2, the basal HIV transcription level is undetectable, as measured through GFP expression. Compounds such as the PKC agonist PMA, the histone deacetylase inhibitor SAHA or the BET bromodomain inhibitor JQ1 reactivate HIV transcription and increase GFP-positive cells detected by FACS analysis. 2D10 cells are more sensitive to HIV reactivation than J-Lat 9.2 cells, though they harbor a mutation in the N-terminal sequence of Tat (H13L). 2D10 and D-HT cells were incubated for 24 hrs with PMA (10 nM), SAHA (5 μM) or JQ1 (1 μM) and GFP positive cells were detected by FACS analysis. […]

B1: HT1 (protein)
chain: KKKHRRRPSKKKRHWKPYYKLTWEEKKKFDEKQSLRASRIRAEMFAKGQPVAPYNTTQFLMDDHDQEEPDLVDMEPVDPYLEPWKHPGSQPRTACNNCYCKKCCFHCYACFTRKGLGISYG
modifications: left off: small tags and cut ends
[1]
  decrease in Luc expression from the HIV promoter: 4 fold
[2]
  expression level of HEXIM1 protein and mRNA: did not change
[3]
  decrease of GFP expression in L-HT compared to J-Lat 9.2: 94%
